Reference: publication PMC4165587, “Comparison of the Structure and Function of Phospholamban and the Arginine-14 Deficient Mutant Associated with Dilated Cardiomyopathy” (PLoS ONE, 2014)

B1: wild type phospholamban (PLBWT), full length, recombinant (natural protein, human, UniProt P26678 1-52, looked up)
chain: MEKVQYLTRSAIRRASTIEMPQQARQKLQNLFINFCLILICLLLICIIVMLL
notes: phospholamban, human, 52 amino acids, full length, non-acetylated; Untagged after TEV cleavage; also called Rec WT; source: E. coli C41(DE3), MBP fusion (pMAL c2X), purified on amylose, cleaved with TEV protease, chloroform/methanol extraction; not shown: MBP, N-terminal, cleaved
B2: phospholamban with a deletion of arginine at position 14 (PLBR14Δ), full length, recombinant (natural protein, human, UniProt P26678 1-52, looked up)
chain: MEKVQYLTRSAIRASTIEMPQQARQKLQNLFINFCLILICLLLICIIVMLL
notes: phospholamban, human, full length, non-acetylated, with the deletion of Arg14 that is associated with human dilated cardiomyopathy; Made from the human PLBWT DNA by site-directed ligase-independent mutagenesis; A synthetic full-length PLBR14Δ was also bought (Activotec), but the experiments written here name the recombinant protein; also called Rec R14Δ; PLBR14D; source: E. coli C41(DE3), MBP …

Target: the molecule itself
Test: SDS-PAGE; recombinant PLB in isolation, solubilised in LDS sample buffer; 4-12% Bolt Bis-Tris Plus gel, MES SDS running buffer; Coomassie stain

Row | Protein | stoichiometry N
1 | B1 | 5
2 | B2 | 5
